For the assay, the target named is TAX peptide, Human T-cell leukemia virus type I peptide on HLA-A2 (human). Kind of assay: data from Cole et al., 2013.

As to “A6-TCR after mutation of the CDR3 beta loop (PDBID 4FTV)”, the fold enhancement of binding over A6-TCR turned out to be 1000 fold.

Source of the values: paper doi:10.1101/2023.02.16.528799.
